Results on 3 molecules are retold here after publication PMC6465933, “Direct Binding of the Flexible C-Terminal Segment of Periaxin to β4 Integrin Suggests a Molecular Basis for CMT4F” (Frontiers in Molecular Neuroscience, 2019).

Sequences and labels used below:
B2: rat L-PRX C-terminal region (amino acids 1036–1383) (domain or fragment, UniProt Q63425 1036-1383, looked up)
chain: EVELVTPGAQETEKVTSGVKPSGLQVSTTRQVVAEGQEGAQRVSSLGISLPQVELASFGEAGPEIAAPSAEGTVGSRIQVPQVMLELPGTQVAGGDLLVGEGIFKMPTVTVPQLELDVGLGHEAQAGETAKSEGGLKLKLPTLGAGGKGEGAEAQSPEAQHTFHISLPDVELTSPVSSHAEYQVVEGDGDGGHKLKVRLPLFGLARAKEGIETGEKVKSPKLRLPRVGFSQSESASGEGSPSPEEEEEGSGEGASGRRGRVRVRLPRVGLASPSKGSKGQEGDAASKSPVGEKSPKFRFPRVSLSPKARSGSKDREEGGFRVRLPSVGFSETAAPGSARIEGTQAAAI
notes: After TEV cleavage an additional N-terminal Ser residue is left; also called rPRX-C; source: E. coli BL21(DE3), purified (Ni-NTA in urea, TEV cleavage, second Ni-NTA, SEC)
B3: His-tagged rat β4-FNIII-3 (β4 integrin amino acids 1512–1602) (domain or fragment, UniProt Q64632 1512-1602, looked up)
chain: PDTPTRLVFSALGPTSLKVSWQEPQCDRALLGYSVEYQLLNGGEMHRLNIPNPGQTSVVVEDLLPNHSYVFRVRAQSQEGWGREREGVITI
notes: β4 integrin, third cytoplasmic fibronectin type III domain, rat, amino acids 1512-1602, synthetic gene in pJ401; No tag cleavage is described for this protein; the His tag is partly seen in the crystal structure; also called His-β4-FNIII-3; rFNIII-3; source: E. coli BL21(DE3), purified (Ni-NTA, SEC)

The target of one experiment is T1, β4 integrin FNIII-3 (Homo sapiens, UniProt P16144).
T1 chain: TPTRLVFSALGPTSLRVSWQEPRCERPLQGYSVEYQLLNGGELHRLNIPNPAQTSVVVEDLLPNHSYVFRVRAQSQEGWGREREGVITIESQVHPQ
The experiment is described as follows: ITC. Background: ITC needs no label: the signal is the heat of the interaction.

For experiment [1], the target named is B3. Kind of experiment: SEC-MALS; with QELS; equimolar complex (145 μM each), Superdex 200 increase 3.2/300GL, 20 mM Tris, 150 mM NaCl, pH 7.4, ambient temperature. As to conditions: both partners purified. In general terms: SEC sorts molecules by how far they enter the pores of the column.
Experiment [2] addresses B2. Kind of experiment: ITC; 680 μM β4-FNIII-3 titrated into 68 μM PRX-C, 25°C, 20 mM HEPES, 150 mM NaCl, pH 7.5. Conditions: both partners purified.

B1: periaxin C-terminal segment (protein)
chain: SGRRGRVRVRLPRVGLAAPSKASRGQEGDAAPKSPVREKSPKFRFPRVSLSPKARSGSGDQEEGGLRVRLPSVGFSETGAPGPARMEGAQAAAV
As usually defined, the Kd is the equilibrium constant for the complex coming apart. A lower Kd goes with tighter binding. Regarding B1, in the experiment with β4 integrin FNIII-3, binding was put at a Kd of 1700 nM.

As a reminder, the stoichiometry N is a count of units in the complex or per binding partner. Regarding B2, the “stoichiometry N” value in experiment [1] came out at 1. As for B3, in experiment [2], binding was characterised by a dissociation constant (Kd) of 1700 ± 100 nM, the dH is 6.2 ± 0.06 kcal/mol and the “stoichiometry N” value is approximately 1.
